Literature values in PMC7642319.

Target: NbpSH3 SH3 (Saccharomyces cerevisiae) (UniProt Q12163)
Sequence (Q12163 107-174): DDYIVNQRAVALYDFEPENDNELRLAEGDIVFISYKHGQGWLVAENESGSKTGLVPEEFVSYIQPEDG

Ste20, sequence (Q03497 2-939): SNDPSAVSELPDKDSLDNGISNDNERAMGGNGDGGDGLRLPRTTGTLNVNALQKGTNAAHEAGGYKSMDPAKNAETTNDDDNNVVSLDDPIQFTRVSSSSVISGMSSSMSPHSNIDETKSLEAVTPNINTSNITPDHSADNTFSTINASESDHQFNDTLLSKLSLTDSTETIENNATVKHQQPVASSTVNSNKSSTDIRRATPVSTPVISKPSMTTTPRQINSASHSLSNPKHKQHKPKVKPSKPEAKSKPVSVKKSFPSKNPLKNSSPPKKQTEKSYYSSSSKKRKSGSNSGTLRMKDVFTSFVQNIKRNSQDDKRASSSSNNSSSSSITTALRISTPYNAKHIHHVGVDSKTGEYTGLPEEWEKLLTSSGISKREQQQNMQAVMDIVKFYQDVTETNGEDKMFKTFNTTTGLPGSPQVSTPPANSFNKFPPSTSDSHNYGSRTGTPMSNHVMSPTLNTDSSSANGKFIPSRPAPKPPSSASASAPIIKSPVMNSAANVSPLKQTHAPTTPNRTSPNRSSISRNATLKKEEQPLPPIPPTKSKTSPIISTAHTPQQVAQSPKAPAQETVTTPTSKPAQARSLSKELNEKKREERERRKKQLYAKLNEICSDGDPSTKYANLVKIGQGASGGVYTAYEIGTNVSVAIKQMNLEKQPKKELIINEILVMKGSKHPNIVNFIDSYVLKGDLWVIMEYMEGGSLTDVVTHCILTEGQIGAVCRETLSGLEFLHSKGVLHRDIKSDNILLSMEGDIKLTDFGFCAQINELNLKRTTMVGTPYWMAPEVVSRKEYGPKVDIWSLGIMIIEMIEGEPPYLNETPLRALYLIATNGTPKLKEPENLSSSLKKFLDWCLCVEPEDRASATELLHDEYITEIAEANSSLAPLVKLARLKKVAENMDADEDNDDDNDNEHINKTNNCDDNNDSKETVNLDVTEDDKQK

Ste20 (from UniProt Q03497)
Kd: 200 nM
